According to paper PMC6362314, “Both a Unique Motif at the C Terminus and an N-Terminal HEAT Repeat Contribute to G-Quadruplex Binding and Origin Regulation by the Rif1 Protein” (Molecular and Cellular Biology, 2018):

B1: Rif1 C-terminal 272-aa polypeptide (aa 1129 to 1400), wild type (domain or fragment, S. pombe, UniProt Q96UP3 1129-1400, looked up)
chain: KIDETKNEATDMEESLTTPSGKVNKEVIVDDTSLRDEAIVPDKAIDVADNSNALLKENISSQSNRKADNNGTPSVNNSFTTANNDECSKENSQIEPEGQTASREGVLSTPRSTRKKRKLGRKSQSSNVNKEVAISEVSATLENVEVIERHGISEQGQNLDESACVLTNESSLSQTEIPEEKTENETTAVNGFENSKKRQFSSLLSGSIDTNNESNKVSSVEFDKSGPQDIIQSMTEATFEIEKNIQDLKSEEVQKLSDLLMRLQRAILSRIA
notes: Rif1, fission yeast (S. pombe), 1,400 amino acids; C-terminal polypeptides were also made in 293T cells (N-terminal His6, C-terminal Flag3); also called Rif1(aa1129-1400); C-terminal polypeptide; source: E. coli, purified (nickel column, Mono Q column if necessary)
B2: Rif1 C-terminal 91-aa polypeptide (aa 1310 to 1400) (domain or fragment, S. pombe, UniProt Q96UP3 1310-1400, looked up)
chain: TENETTAVNGFENSKKRQFSSLLSGSIDTNNESNKVSSVEFDKSGPQDIIQSMTEATFEIEKNIQDLKSEEVQKLSDLLMRLQRAILSRIA
notes: Rif1, fission yeast (S. pombe), 1,400 amino acids; residues 1310-1400; also called C-terminal 91 amino acids; source: E. coli, purified (nickel column, Mono Q column if necessary)
B3: Rif1 C-terminal 148-aa polypeptide (aa 1253 to 1400) (domain or fragment, S. pombe, UniProt Q96UP3 1253-1400, looked up)
chain: SSNVNKEVAISEVSATLENVEVIERHGISEQGQNLDESACVLTNESSLSQTEIPEEKTENETTAVNGFENSKKRQFSSLLSGSIDTNNESNKVSSVEFDKSGPQDIIQSMTEATFEIEKNIQDLKSEEVQKLSDLLMRLQRAILSRIA
notes: Rif1, fission yeast (S. pombe), 1,400 amino acids; residues 1253-1400; source: E. coli, purified (nickel column, Mono Q column if necessary)
B4: Rif1 C-terminal 229-aa polypeptide (aa 1172 to 1400) (domain or fragment, S. pombe, UniProt Q96UP3 1172-1400, looked up)
chain: AIDVADNSNALLKENISSQSNRKADNNGTPSVNNSFTTANNDECSKENSQIEPEGQTASREGVLSTPRSTRKKRKLGRKSQSSNVNKEVAISEVSATLENVEVIERHGISEQGQNLDESACVLTNESSLSQTEIPEEKTENETTAVNGFENSKKRQFSSLLSGSIDTNNESNKVSSVEFDKSGPQDIIQSMTEATFEIEKNIQDLKSEEVQKLSDLLMRLQRAILSRIA
notes: Rif1, fission yeast (S. pombe), 1,400 amino acids; residues 1172-1400; source: E. coli, purified (nickel column, Mono Q column if necessary)

Target: the molecule itself
Assay: native gel or EMSA; purified Rif1 C-terminal polypeptides on a native protein gel (5% to 20% gradient gel), CBB staining; self-association

Stoichiometry N, ≤ 16 subunits:
B1, B2, B3, B4
